{
  "source": "patent US20140249052A1",
  "about": "(University of Washington, published 2014)",
  "binders": {"B1": {"name": "Bio-GrBP5 (biotin-graphite binding peptide fusion, Bio-IMVTESSDYSSY) (peptide)", "peptide": "IMVTESSDYSSY", "HELM": "PEPTIDE1{[O=C1N[C@H]2[C@H](CS[C@H]2CCCCC(=O)[*:2])N1].I.M.V.T.E.S.S.D.Y.S.S.Y}$$$$V2.0", "SMILES": "CC[C@H](C)[C@H](NC(=O)CCCC[C@@H]1SC[C@@H]2NC(=O)N[C@@H]21)C(=O)N[C@@H](CCSC)C(=O)N[C@H](C(=O)N[C@H](C(=O)N[C@@H](CCC(=O)O)C(=O)N[C@@H](CO)C(=O)N[C@@H](CO)C(=O)N[C@@H](CC(=O)O)C(=O)N[C@@H](Cc1ccc(O)cc1)C(=O)N[C@@H](CO)C(=O)N[C@@H](CO)C(=O)N[C@@H](Cc1ccc(O)cc1)C(=O)O)[C@@H](C)O)C(C)C", "notes": "Synthetic 12-mer with N-terminal biotin; In the assays it was self-assembled on graphite (nanowires or monolayer) or on a graphene FET sensor; also called biotinilated peptide; bio-GrBP5 peptide nanowires"}},
  "target": "T1, streptavidin (from Streptomyces avidinii, 50677, Sigma-Aldrich) (Streptomyces avidinii, UniProt P22629 37-163, limits assumed)",
  "T1 construct": "Commercial protein used as received",
  "T1 sequence (P22629 37-163 limits assumed)": "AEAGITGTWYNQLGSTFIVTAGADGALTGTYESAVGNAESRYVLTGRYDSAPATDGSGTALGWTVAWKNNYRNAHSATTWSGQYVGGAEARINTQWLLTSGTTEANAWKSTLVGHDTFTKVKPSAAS",
  "assay": "graphene FET sensor, Langmuir fit of response against concentration; mixed monolayer (25% bio-GrBP5, 75% SS-GrBP5) washed before SA was added, BSA background",
  "experimental": "A 20 μl drop of water was placed on the sensor and the resistance was allowed to equilibrate. The device was maintained in a hydration chamber at 100% humidity to prevent evaporation. Analyte was added to the static drop on the sensor in the appropriate concentrations, so that the total volume of the drop never exceeded 35μl. Data was collected from two distinct devices and each experiment was reproduced at least once. See supporting information for additional data.\nBy combining the anti-fouling properties of SS-GrBP5 with the biotinylated probe peptide, we created a sensor capable of selective detection of streptavidin in a bovine serum albumin solution. A mixed peptide monolayer consisting of 25% bio-GrBP5 and 75% SS-GrBP5 was formed in a single step from a solution with an overall concentration of 10 μg/ml. […] Guided by the results in FIG. 21, we introduced 5 μg/ml BSA to the sensor and detected no binding (FIG. 22C). We then introduced sequentially increasing concentrations of SA to the sensor, while maintaining the levels of BSA, and were able to reliably detect streptavidin at 100 ng/ml, although some signal was present at even lower concentrations (FIG. 22C). […] The overall stability of the bio-GrBP5 appears to have been improved by co-assembly with SS-GrBP5, displaying very high coverage and density. […]",
  "data": [
    {"binder": "B1", "values": [
      {"measurement": "Kd", "result": "~1.5", "unit": "nM"}
    ]}
  ]
}
